Laboratory results reported in patent publication US20250368729A1.
pEC50: −log10 of the molar value. One block for each substance: values may come before it.

Experiments:
[1] = target: KEN hATTR amyloid extract (human) (UniProt P02766); assay: EuLISA, substrate coated on plate
[2] = target: SHI ALλ liver amyloid extract; assay: EuLISA, substrate coated on plate
[3] = target: Per125 wtATTR amyloid extract (human) (UniProt P02766); assay: EuLISA, substrate coated on plate
[4] = target: synthetic amyloid-like fibrils of recombinant amyloidogenic λ6 variable domain protein (rVλ6Wil); assay: EuLISA, substrate coated on plate
[5] = target: TAL ALκ liver amyloid extract; assay: EuLISA, substrate coated on plate
[6] = target: KEN hATTR amyloid extract (human) (UniProt P02766); assay: pulldown, labelled antibody
[7] = target: SNO hereditary (h) ATTR amyloid extract (human) (UniProt P02766); assay: pulldown, labelled antibody
[8] = target: hIAPP fibril (UniProt P10997); assay: pulldown of 125I-labelled antibody with the substrate pellet
Chain of hIAPP fibril (P10997 34-70 limits assumed): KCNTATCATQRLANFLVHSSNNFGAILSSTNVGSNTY

[9] = target: Aβ(1-40) amyloid-like fibrils (UniProt P05067); assay: as above
Chain of Aβ(1-40) amyloid-like fibrils (P05067 672-711 limits assumed): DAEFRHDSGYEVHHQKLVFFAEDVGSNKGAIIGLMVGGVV

LogEC50 [1]: -1.36 | Max (maximal level of binding) [1]: 19700
Substance: chimeric (c) 11-1F4 (antibody)

LogEC50 [2]: 7.88 -log(M) | Max (maximal level of binding) [2]: 2.5 | LogEC50 [3]: 7.92 -log(M) | Max (maximal level of binding) [3]: 8.38 | LogEC50 [1]: 9.06 -log(M) | Max (maximal level of binding) [1]: -0.8 | pEC50 [4]: 5.89 | LogEC50 [4]: 5.89 -log(M) | Max (maximal level of binding) [4]: 39.3 | LogEC50 [5]: 3 -log(M) | Max (maximal level of binding) [5]: 2220
Substance: hIgG1 control (antibody)

pEC50 [1]: 8.45 | LogEC50 [1]: 8.45 -log(M) | Max (maximal level of binding) [1]: 19.9 | percent bound [6]: 15% | percent bound [7]: 12%
Substance: murine Ig-peptide fusion Igp5 (murine 11-1F4 with peptide p5 fused to the N-terminus of the light chain) (antibody)

LogEC50 [1]: 2.39 | Max (maximal level of binding) [1]: 294000 | bound to substrate (pulldown) [8]: 5.1% | bound to substrate (pulldown) [9]: 4.6%
Substance: murine antibody m11-1F4
